The text below walks through data of paper PMC6774519.

Series [1] deals with #B1-3 anti-m6A monoclonal antibody (guinea pig (Hartley)). The series can be described thus: UV crosslinking, IP and RT truncation (footprinting). The note with it: 41 clones sequenced; m6A at position 14; SPR: Biacor T100, HBS-EP+ buffer, 30 ul/min, biotin-RNA at 20 RU on SA chip, antibody 0-27 nM, 1:1 fit; ELISA: PBS, 3 h, room temperature; UV-crosslink IP: …. Background: ELISA stands for enzyme-linked immunosorbent assay.

For series [2], the system named is #B1-1 anti-m6A monoclonal antibody (guinea pig (Hartley)). The series can be described thus: SPR. Particulars: m6A at position 6; SPR: Biacor T100, HBS-EP+ buffer, 30 ul/min, biotin-RNA at 20 RU on SA chip, antibody 0-27 nM, 1:1 fit; ELISA: PBS, 3 h, room temperature; UV-crosslink IP: ….
Series [3] deals with #B1-3 anti-m6A monoclonal antibody (guinea pig (Hartley)). Description: SPR. Particulars: m6A at position 6; SPR: Biacor T100, HBS-EP+ buffer, 30 ul/min, biotin-RNA at 20 RU on SA chip, antibody 0-27 nM, 1:1 fit; ELISA: PBS, 3 h, room temperature; UV-crosslink IP: ….
Series [4] has the same test system. The series can be described thus: pull-down (protein A IP). The note with it: m6A at position 6; SPR: Biacor T100, HBS-EP+ buffer, 30 ul/min, biotin-RNA at 20 RU on SA chip, antibody 0-27 nM, 1:1 fit; ELISA: PBS, 3 h, room temperature; UV-crosslink IP: ….

In the case of “AUCAUCUUUCGGGACUGACCUGAAAUGAACCCUA [Snord-oligo (Snord2, 34 nt)]”, the binding signal (% RT truncations at m6A) in series [1] was 68.

Take NNNGGACNNN [m6A-oligo]: the Kd (as a rule, the constant that tells how readily two partners part at equilibrium) turned out to be 2.5 nM in series [2] and 6.5 nM in series [3]. In addition, the binding signal (% immunoprecipitated) in series [4] was found to be 35.
